Biological target: the molecule itself
Assay: cross-linking; 2 ug MtbRho, 0.05% glutaraldehyde, 5 and 10 min at 37 C in T-buffer (KCl instead of K-glutamate), no RNA or ATP; 3.5-8% gradient SDS-PAGE; cross-linked RNAP as marker of ~400 kDa

B1: Mycobacterium tuberculosis Rho (enzyme)
chain: MTDTDLITAGESTDGKPSDAAATDPPDLNADEPAGSLATMVLPELRALANRAGVKGTSGMRKNELIAAIEEIRRQANGAPAVDRSAQEHDKGDRPPSSEAPATQGEQTPTEQIDSQSQQVRPERRSATREAGPSGSGERAGTAADDTDNRQGGQQDAKTEERGTDAGGDQGGDQQASGGQQARGDEDGEARQGRRGRRFRDRRRRGERSGDGAEAELREDDVVQPVAGILDVLDNYAFVRTSGYLPGPHDVYVSMNMVRKNGMRRGDAVTGAVRVPKEGEQPNQRQKFNPLVRLDSINGGSVEDAKKRPEFGKLTPLYPNQRLRLETSTERLTTRVIDLIMPIGKGQRALIVSPPKAGKTTILQDIANAITRNNPECHLMVVLVDERPEEVTDMQRSVKGEVIASTFDRPPSDHTSVAELAIERAKRLVEQGKDVVVLLDSITRLGRAYNNASPASGRILSGGVDSTALYPPKRFLGAARNIEEGGSLTIIATAMVETGSTGDTVIFEEFKGTGNAELKLDRKIAERRVFPAVDVNPSGTRKDELLLSPDEFAIVHKLRRVLSGLDSHQAIDLLMSQLRKTKNNYEFLVQVSKTTPGSMDSD
notes: also called MtbRho; recombinant MtbRho
- stoichiometry N: 6

From paper PMC4167861, “Mycobacterium tuberculosis Rho Is an NTPase with Distinct Kinetic Properties and a Novel RNA-Binding Subdomain” (PLoS ONE, 2014)
